# PMC7954794, “Protein context shapes the specificity of SH3 domain-mediated interactions in vivo” (Nature Communications, 2021)
# B1: Abp1SH3 in Abp1: Abp1 with its own SH3 reintroduced by editing (control) (protein)
# chain: MALEPIDYTTHSREIDAEYLKIVRGSDPDTTWLIISPNAKKEYEPESTGSSFHDFLQLFDETKVQYGLARVSPPGSDVEKIIIIGWCPDSAPLKTRASFAANFAAVANNLFKGYHVQVTARDEDDLDENELLMKISNAAGARYSIQTSSKQQGKASTPPVKKSFTPSKSPAPVSKKEPVKTPSPAPAAKISSRVNDNNDDDDWNEPELKERDFDQAPLKPNQSSYKPIGKIDLQKVIAEEKAKEDPRLVQKPTAAGSKIDPSSDIANLKNESKLKRDSEFNSFLGTTKPPSMTESSLKNDDDKVIKGFRNEKSPAQLWAERKAKQNSGNAETKAEAPKPEVPEDEPEGEPDVKDLKSKFEGLAASEKEEEEMENKFAPPPKKSEPTIISPKPFSKPQEPVKAEEAEQPKTDYKKIGNPLPGMHIEADNEEEPEENDDDWDDDEDEAAQPPLPSRNVASGAPVQKEEPEQEEIAPSLPSRNSIPAPKQEEAPEQAPEEEIEEEAEEAAPQLPSRSSAAPPPPPRRATPEKKPKENPWATAEYDYDAAEDNELTFVENDKIINIEFVDDDWWLGELEKDGSKGLFPSNYVSLGN
# modifications: left off: DHFR F[1,2], C-terminal, kept | FLAG, C-terminal, kept
# B2: ABP1 S45S (protein, UniProt P15891 2-592, looked up)
# Actin-binding protein: ALEPIDYTTHSREIDAEYLKIVRGSDPDTTWLIISPNAKKEYEPESTGSSFHDFLQLFDETKVQYGLARVSPPGSDVEKIIIIGWCPDSAPLKTRASFAANFAAVANNLFKGYHVQVTARDEDDLDENELLMKISNAAGARYSIQTSSKQQGKASTPPVKKSFTPSKSPAPVSKKEPVKTPSPAPAAKISSRVNDNNDDDDWNEPELKERDFDQAPLKPNQSSYKPIGKIDLQKVIAEEKAKEDPRLVQKPTAAGSKIDPSSDIANLKNESKLKRDSEFNSFLGTTKPPSMTESSLKNDDDKVIKGFRNEKSPAQLWAERKAKQNSGNAETKAEAPKPEVPEDEPEGEPDVKDLKSKFEGLAASEKEEEEMENKFAPPPKKSEPTIISPKPFSKPQEPVKAEEAEQPKTDYKKIGNPLPGMHIEADNEEEPEENDDDWDDDEDEAAQPPLPSRNVASGAPVQKEEPEQEEIAPSLPSRNSIPAPKQEEAPEQAPEEEIEEEAEEAAPQLPSRSSAAPPPPPRRATPEKKPKENPWATAEYDYDAAEDNELTFVENDKIINIEFVDDDWWLGELEKDGSKGLFPSNYVSLGN
# modifications: synonymous S45S codon change in SH3 domain
# B3: E13E (protein, UniProt P15891 2-592, looked up)
# Actin-binding protein: B2 Actin-binding protein
# modifications: synonymous codon change E13E in SH3
# Legend:
# Format in all cases: cell-based, Saccharomyces cerevisiae
# [1] = tested on: growth of ABP1 SH3-swapped strains in hygromycin B; experiment: Hygromycin B resistance assay in liquid culture (Fig. S2E); details: 37 °C, 24 h, n = 3
# Description: For the hygromycin B resistance assays in liquid cultures, the ABP1 SH3 swapped strains including the ABP1 SH3-deleted and ABP1 KO strain were grown overnight at 30 °C as precultures in synthetic complete medium with MSG. The next day, OD was measured with a TECAN Infinite F200 Pro plate reader, and the cultures were diluted to OD of 1.0 in sterile nanopure water. The different strains were further diluted at 0.1 OD by adding 25 µl of cultures to 225 µl of synthetic complete medium with MSG or with MSG and Hygromycin B 120 µg/mL in 96 wells plate (final concentration of 108 µg/mL). Cells were incubated in a TECAN Infinite M Nano plate reader at 37 °C for 24 h and OD was measured every 15 min.
# Abp1 PPIs = experiment: DHFR-PCA of Abp1 SH3-swapped baits (Fig. 2B-D, S2C, S2F); details: DHFR-PCA, quadruplicate
# Method in brief: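 Interactions were scored by DHFR protein-fragment complementation. DHFR F[1,2]-tagged Abp1 strains, whose SH3 was swapped for yeast or human ortholog domains, were crossed on YPD at 30 °C for 48 h with a 1536-format array of 575 prey-DHFR F[3] strains and 40 negatives, giving four replicates per pair. PCA selection lasted 4 days after double diploid selection.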
# Hua2 [2] = experiment: Deep mutational scanning of Abp1 SH3, Abp1-Hua2 DHFR-PCA (DMS score)
# Method in brief: (§1)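 Yeast, genomic ABP1 SH3 single-codon mutant pool (58 positions, NNN) × DHFR F[3] prey; diploid selection, then 2 cycles PCA selection medium, 72 h, 30 °C each. Readout: Illumina sequencing of SH3 locus vs. unselected diploid reference (S2). Biological duplicates.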
# Lsb3 = experiment: Deep mutational scanning of Abp1 SH3, Abp1-Lsb3 DHFR-PCA (DMS score)
# Method in brief: as §1
# Hua2 and Lsb3 = experiment: Deep mutational scanning of Abp1 SH3, quadrant by Hua2 and Lsb3 DMS scores
# Abp1 (1xFLAG) = experiment: Western blot expression level of Abp1 SH3 mutants (Fig. S3C-D)
# Description: Precultures of yeast cells expressing baits fused with the DHFR F[1,2]-FLAG were grown overnight at 30 °C with agitation in synthetic complete medium. The next day, cells were expanded in synthetic complete medium to reach their exponential phase (OD600 of around 1.0), pelleted, and frozen at −80 °C. The equivalent of fifty OD600 of cells was resuspended in ice-cold yeast lysis buffer (10 mM Tris-HCl pH 7.4, 150 mM NaCl, 0.5 mM EDTA (Millipore Sigma), 1% Triton X-100 (Millipore Sigma), and one cOmplete Mini Protease Inhibitor Cocktail (Millipore Sigma) per 10 mL) with […] glass beads (Millipore Sigma) and disrupted at 4 °C by 10 cycles of 2 min vortexing and 2 min cooldown. The equivalent of […] of lysed cells was used for the immunoprecipitation of the bait proteins using FLAG-M2 agarose beads (Millipore Sigma). The beads were incubated with the cell lysates for 120 min at 4 °C with a slow rotation, followed by three washes with the yeast lysis buffer.
# Protein extracts and affinity-purified baits from yeast and human lysed cells were migrated on 10% polyacrylamide gels. The separated proteins were then transferred to nitrocellulose membranes. Validation of correct protein loading was done with ponceau staining of the membranes. Before the primary antibody incubations, membranes were blocked in 5% milk. Protein signals were detected on an Amersham Imager 600RGB (GE Healthcare) following the incubation of the membranes with the appropriate HRP-conjugated secondary antibodies and the Clarity Western ECL Substrate (Bio-Rad). The antibodies used in this study are M2-HRP (A8592, Sigma, 1/50,000), rabbit anti-FLAG (F7425, Sigma, 1/1000), PAK (SC-881, Santa Cruz, 1/200), p130cas/BCAR1 (SC-860, Santa Cruz, 1/200), actin (Cell Signaling Technology, 1/2000), anti-mouse HRP (Cell Signaling Technology, 1/10,000) and anti-rabbit HRP (Cell Signaling Technology, 1/10,000). The quantification of the WB signals was performed with the Amersham Imager 600 analysis software (GE Healthcare). […]
# C, WB comparing expression levels of selected Abp1 SH3 mutants with WT Abp1. An asterisk represents a stop codon, which inhibits translation of the 1xFLAG epitope. D, Quantification of the relative level of expression of Abp1 SH3 mutants by WB as in C, (log2 of Abp1 SH3 mutant/Abp1 WT ratio, WB relative level of expression of 0 for WT Abp1) compared to their DMS scores (Hua2 (left): Pearson’s r = -0.34, p-value = 0.46, Lsb3 […]
# (right): Pearson’s r = -0.81, p-value = 0.03). […]
# Most […]
# interface residues sensitive to mutations, such as Y7, E13, E16, V3 1, D32, D34, L48 and Y53, specifically affect Hua2 PPI. See also Supplementary Table 4.
# Hua2 [3] = experiment: Low-throughput liquid DHFR-PCA of selected Abp1 SH3 mutants (Fig. S3F); details: average
# Description: Liquid DHFR-PCA low-throughput experiments were performed to validate the PPIs identified as affected by the SH3 domain deletions in the high-throughput solid DHFR-PCA screen (256 PPIs weaker or lost and 116 PPIs stronger or gained following domain deletions). Mating and the diploid selection were performed as described for the large-scale experiment, with the exception that the plates were in 384 formats. Following the second diploid selection, diploid cells were inoculated in a 96 v-shaped well plate using a robotically manipulated 96 pin tool in a synthetic complete medium with MSG at pH 6.0 with NAT and HPH. After 48 h of growth, optical density (OD) was read using a TECAN Infinite F200 Pro, and dilutions to 1 OD in sterile nanopure water were prepared. Cells were then diluted to 0.1 OD by combining 25 µl of cell suspension at OD = 1 and 225 µl of PCA selection media without agar in a 96-wells plate. Plates were incubated at 30 °C in a TECAN Infinite M Nano and OD was monitored each 15 min for 72 h. […]
# Selected non-conserved positions (E6 , E13, N15 and N27) sensitivities to mutations for the Abp1-Hua2 PPI were tested in a low -throughput liquid DHFR -PCA assay. The growth of the mutants in the low -throughput experiment (average of four replicates of the total OD for each growth curve, y axis ) is compared to the mutants DMS score (x axis). […]
molecule,measurement,setting,value
B1,Hygromycin phenotype,[1],fully reproduces WT sensitivity
same,Kendall's τ of PPI profile with WT Abp1,Abp1 PPIs,0.93
B2,HUA2_MTX2 = frequencies normalized to the reference condition,"Hua2 [2]; Hua2, MTX2, amino acid format",1.852
same,hua2sc = Frequencies scaled to the synonymous mutation distribution (DMS score),"Hua2 [2]; Hua2, scaled to the synonymous mutation distribution",0.2394
same,LSB3_MTX2 = frequencies normalized to the reference condition,"Lsb3; Lsb3, MTX2, amino acid format",1.916
same,lsb3sc = Frequencies scaled to the synonymous mutation distribution (DMS score),"Lsb3; Lsb3, scaled to the synonymous mutation distribution",0.4157
same,quadrant,Hua2 and Lsb3,Neutral
B3,DMS score Hua2,"Hua2 [2]; Abp1-Hua2 DHFR-PCA, WT = 0, Fig. S3C-D",-0.2784
same,DMS Score,"Hua2 [2]; condition HUA2_MTX2, amino acid mutation format, Fig. S3F",1.334
same,Ratio Mutant/WT Flag,Abp1 (1xFLAG); Western blot Flag signal of mutant relative to WT,0.6362
same,Flag (2 bands),"Abp1 (1xFLAG); Western blot, Flag signal, 2 bands",23257
same,DMS score Lsb3,"Lsb3; Abp1-Lsb3 DHFR-PCA, WT = 0, Fig. S3C-D",-0.3311
same,ave_au (DMS validation),Hua2 [3],78.0323 au
